1 substance from ChEMBL document CHEMBL5108047 can be followed below.

Data set [1] has as its system CN(C(=S)Cn1nc2c(c1C(F)(F)F)CCC2)c1ccccc1. The conditions noted are these: Homo sapiens; dose 2.5 nM.
Description: Inhibition of human DNA polymerase theta assessed as substrate Km using dNTP as substrate at 2.5 nM
The test system is the same in data set [2]. The conditions noted are these: Homo sapiens; dose 30.0 nM.
Description: Inhibition of human DNA polymerase theta assessed as substrate Km using dNTP as substrate at 30 nM
The test system is the same in data set [3]. The conditions noted are these: Homo sapiens; dose 5.0 nM.
Description: Inhibition of human DNA polymerase theta assessed as substrate Km using dNTP as substrate at 5 nM
Data set [4] has the same test system. The conditions noted are these: Homo sapiens; dose 30.0 nM. This is another data set of the same source.
Description: Inhibition of human DNA polymerase theta assessed as substrate Vmax using dNTP as substrate at 30 nM
For data set [5] the test system is unchanged. The conditions noted are these: Homo sapiens; dose 40.0 nM.
Data set [6] shares this test system. The conditions noted are these: Homo sapiens; dose 20.0 nM.
The test system is the same in data set [7]. The conditions noted are these: Homo sapiens; dose 40.0 nM. The source holds these as a separate data set.
The test system is the same in data set [8]. The conditions noted are these: Homo sapiens; dose 2.5 nM. The source holds these as a separate data set.
Description: Inhibition of human DNA polymerase theta assessed as substrate Vmax using dNTP as substrate at 2.5 nM
Data set [9] shares this test system. The conditions noted are these: Homo sapiens; dose 5.0 nM. The source holds these as a separate data set.
Description: Inhibition of human DNA polymerase theta assessed as substrate Vmax using dNTP as substrate at 5 nM
For data set [10] the test system is unchanged. The conditions noted are these: Homo sapiens; dose 20.0 nM. This is another data set of the same source.
Data set [11] has the same test system. The conditions noted are these: Homo sapiens; dose 10.0 nM.
Data set [12] shares this test system. The conditions noted are these: Homo sapiens; dose 10.0 nM. The source holds these as a separate data set.

Turning to “DNA polymerase theta (Homo sapiens), O75417”, the Km was found to be 25.2 µM in data set [1]; 112 µM in data set [2]; 36.6 µM in data set [3]; 57 µM in [6]; 39.5 µM in [7]; 24 µM in data set [11]. In addition, the Vmax in [4] came out at 15.2 µM/min; in data set [5], 6.45 µM/min; in [8] it was 51.2 µM/min; in data set [9] it was 51.3 µM/min; in data set [10], 21.8 µM/min; in data set [12], 25.5 µM/min.
